From patent US12723078 (University of Texas, dated 2026)

Molecular target: T1, recombinant LILRB1 (human, UniProt Q8NHL6 24-461)
T1 construct: LILRB1-Fc proteins were also made; also called LILRB1 recombinant proteins
Test: ELISA, coated recombinant LILRB1, antibody titration;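 further: serially diluted anti-LILRB1 antibodies incubated 60 min at 37 °C on plates coated with 50 ng/well recombinant protein, TMB colorimetric development read as absorbance at 450 nm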
Method: ELISA. LILRB1 recombinant proteins (50 ng/well, 100 μL per well) were coated on Corning 96-well ELISA plates at 37° C. for 4 hrs. Plates were blocked for 2 hrs at 37° C. with 5% non-fat milk. After washing with PBST, 100 μL of serial diluted anti-LILRB1 antibodies were added and incubated for 60 min at 37° C. […] Plates were washed again with PBST for another 5 times, then the immunoreactions were developed with TMB substrates (Sigma, Cat #T0440) and stopped by the addition of 2 M H_2SO_4 before the plate was read at 450 nm.

T1 sequence (Q8NHL6 24-461 limits assumed): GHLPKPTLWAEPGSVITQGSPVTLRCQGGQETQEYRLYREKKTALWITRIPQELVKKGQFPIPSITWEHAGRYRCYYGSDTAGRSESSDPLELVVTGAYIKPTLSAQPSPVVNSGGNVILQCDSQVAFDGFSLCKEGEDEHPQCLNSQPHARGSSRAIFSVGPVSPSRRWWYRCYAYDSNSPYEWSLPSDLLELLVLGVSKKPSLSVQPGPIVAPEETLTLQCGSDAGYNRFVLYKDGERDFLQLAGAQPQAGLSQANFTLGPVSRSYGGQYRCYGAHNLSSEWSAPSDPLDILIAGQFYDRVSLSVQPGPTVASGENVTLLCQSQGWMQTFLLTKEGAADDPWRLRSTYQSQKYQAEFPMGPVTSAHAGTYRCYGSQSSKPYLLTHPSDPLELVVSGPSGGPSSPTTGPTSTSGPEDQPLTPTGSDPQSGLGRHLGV

Row | Binder | EC50 [µg/mL]
1 | B1-#15 (antibody, V domains shown, recombinant rabbit IgG) VH: EQSVEESGGDLVKPGASLTLTCTASGFSSSSSAYMCWVRQAPGKGLEWIACIFIGSGSDSYYATWAKGRFTISKTSSTTVTLQMTSLTAADTATYFCARNTYDWNGYIYGPCYFGLWGPGTLVTISS VL: ELDLTQTPSSVEAAVGGTVTIKCQASQSIYNYLAWYQQKPGHSPKLLIYDVSKLASGVSSRFKGSGSGTEFTLTISDLECADAATYYCQSYYGNTVSFTFGGGTEVEIK | 0.0093
2 | B1-#58-1 (antibody, V domains shown, recombinant rabbit IgG) VH: EQSLEESGGDLVKPGASLTLTCTASAFSFSSSSWICWVRQAPGKGLEWIACIYGGSVGTTYYASWAKGRFTISKPSSTTVTLQMTSLAAADTATYFCATNTDSSRSYYNLWGPGTLVTISS VL: ELVLTQTPSSVEVAVGGAVTIKCQASHIITNYLAWYQQRPGQPPKLLIYDASKLASGVPSRFKGSGSGTEFTLTISDLECADAATYYCQNYLYFSSGDWNVFGGGTEVVVK | 0.0171
3 | B1-#83 (antibody, V domains shown, recombinant rabbit IgG) VH: EQSLKESGGDLVKPGASLTLTCTASAFSFSSSSWICWVRQAPGKGLEWIACIYGGSVATTYYATWAKGRFTISKPSSTTVTLQMTSLPAADTATYFCATNTDSSRSYYNLWGPGTLVTVSS VL: ELDLTQTPSSVEVAVGGAVTIKCQASHIITNYLAWYQQRPGQPPKLLIYDASKLASGVPSRFKGSGSGTEFTLTISDLECADAATYYCQNYLYFSSGDWNVFGGGTEVVVK | 0.0155
4 | B1-#79 (antibody, V domains shown, recombinant rabbit IgG) VH: QSLEESGGGLVQPEGSLTLTCTVSGFSFSSSWYMCWVRQAPGKGLEWIACIYTLRSGAAHYANWAKGRFTISKASSTTVTLQMNSLTAADTATYFCARATYAYAGAGDLWGPGTLVTVSS VL: ELVLTQTPSSVSAAVGGTVTINCQASEDIDRYLAWYQQKPGQRPKLLIVDASTLPSGVPSRFKGSGSGTEFTLTISDLECADGATYYCQSYDNSDNNGFGGGTEVVVK | 0.0154
5 | B1-#56 (antibody, V domains shown, recombinant rabbit IgG) VH: QSLEESGGDLVQPEGSLTLTCTASGFSFSINLYMCWVRQAPGKGLEWIACIYGNNNANTYYTTWAKGRFTISKTSPTTVTLQMTSLTGADTATYFCARDTAAYYAFSLWGPGTLVTISS VL: ELVMTQTPSSSSAAVGGTVTIKCQASQSIGSRFAWYQQKPGQRPKLLIYEASKLPSGVPSRFKGSGSGTEFTLTISDLECADAAIYYCQCTYYESSSGGGFGGGTEVVVK | 0.0438

Results, then the binder that gave them:

Row | EC50 [µg/mL] | Binder
6 | 0.0285 | B1-#160 (antibody, V domains shown, recombinant rabbit IgG) VH: QEQLVESGGGLVQPEGSLTLTCKASGIDFSSGYWICWVRQAPGKGLELIACIFTSSGTTYYASWAKGRFTISKTSSTTVTLQMTSLTAADTATYFCARDIYSYGMDLWGPGTLVTVSS VL: ELDLTQTPASVSAAVGGTVTIKCQASQSISSSYLAWYQQKPGQPPKLLIYSASSTASGVPSRFKGSGSGTQFTLTISDLECADAATYYCQSTYISSSKYGAVFGGGTELEIK
7 | 0.0053 | B1-#175 (antibody, V domains shown, recombinant rabbit IgG) VH: ESEGGLVKPGGTLTLTCKVSGIDFNSYKYYYMCWVRQAPGKGLEWIGCMSTASRNIYYASWAKGRFTISETSSTSVTLQMTTLTAADTATYFCAKSHGGDGGYGVVLWGPGTLVTISS VL: ELVMTQTPSSVSAAVGDTLTINCQASETISNRLAWYQQKPGQPPKLLIYSASTLESGVPSRFRGSGSGTQFTLTISDLECADAATYYCQSIRSSSGVVHPNTFGGGTEVEIK
8 | 0.0242 | B1-#28 (antibody, V domains shown, recombinant rabbit IgG) VH: EQSLEESGGGLVKPGASLTLTCKASGFSFSSDYDMCWVRQAPGKGLEWIGCIVTGFSGRIYYATWARGRFTFSRTSSTTLTLQMTSLTAADTATYFCARDSGNYNWDLWGPGTLVTISS VL: ELDLTQTPTSVSAAVGGTVTIKCQASQSISDYLSWYQQKPGQPPKLLIYRASTLASGVPSRFKGSGSGTEFTLTISDLECADAATYYCQSNYYGSQGCTFGGGTEVEIK
9 | 0.0594 | B1-#202-2 (antibody, V domains shown, recombinant rabbit IgG) VH: SQSLEESGGGLVKPGASLTLTCKGSGFSFNGDYYMCWVRQTPGKGLEWIGCIYAAGDDTYYATWAKGRFTISKTSSTTVTLQMTSLTAADTATYFCARDQADSYAFGLWGPGTLVTISS VL: ELVLTQTASPVSGAVGGTVTIKCQASQNIYSNLAWYQQKPGQPPKLLIYSASKLASGVPSRFKGSGSGTEYTLTISGVQCEDAATYYCQSYYYTASADTTFGGGTEVEIK
10 | 0.0106 | B1-#220 (antibody, V domains shown, recombinant rabbit IgG) VH: QSVEESGGGLVQPEGSLTLTCTASGFSFSGIVYMCWVRQAPGKGLEWIACAFVGSGGSTYYATWATGRFTISKTSSTTVTLQMTSLTAADTATYFCAKSYNYNGLGLWGPGTLVTVSS VL: ELDMTQTPASVSAAVGGTVTIKCQASQSITNALAWYQQKPGQPPKLLIYRASTLASGVSSRFKGSGSGTEFTLTISDLECADAATYYCQCSYYGSTYFGSPFGGGTEVEIK

Molecular target: T2, human LILRB1 recombinant protein (human, UniProt Q8NHL6 24-461)
T2 construct: The ELISA method says only 'LILRB1 recombinant proteins' coated on plates; also called leukocyte immunoglobulin-like receptor subfamily B member 1
Test: ELISA, B cell supernatant

T2 sequence (Q8NHL6 24-461 limits assumed): as the sequence (Q8NHL6 24-461 limits assumed) above

Row | Binder | OD450 [OD450]
11 | mAb of B cell clone 74 (supernatant) (antibody, V domains shown, rabbit; also called B1-#74) VH: QSLEESGGGLVKPGASLTLTCTASGFSLNRYYMCWVRQAPGKGLEWIGCIYSGSGSTYYASWAKGRFTISKTSSTTVTLQMTSLPAADTATYFCGRLDYRVIYAFNLWGPGTLVTISS VL: ELVLTQTPASVSAAVGGTVTINCQASQSIGSGNLAWYQQKPGQPPKLLIYLASTLASGVPPRFKGSGSGTEFTLTISDLECDDAATYYCQYTYYGTTYDNAFGGGTELEIK | 2.4
12 | mAb of B cell clone 58 (supernatant) (antibody, V domains shown, rabbit; also called B1-#58-1) VH: EQSLEESGGDLVKPGASLTLTCTASAFSFSSSSWICWVRQAPGKGLEWIACIYGGSVGTTYYASWAKGRFTISKPSSTTVTLQMTSLAAADTATYFCATNTDSSRSYYNLWGPGTLVTISS VL: ELVLTQTPSSVEVAVGGAVTIKCQASHIITNYLAWYQQRPGQPPKLLIYDASKLASGVPSRFKGSGSGTEFTLTISDLECADAATYYCQNYLYFSSGDWNVFGGGTEVVVK | 2.26
13 | mAb of B cell clone 83 (supernatant) (antibody, V domains shown, rabbit; also called B1-#83) VH: EQSLKESGGDLVKPGASLTLTCTASAFSFSSSSWICWVRQAPGKGLEWIACIYGGSVATTYYATWAKGRFTISKPSSTTVTLQMTSLPAADTATYFCATNTDSSRSYYNLWGPGTLVTVSS VL: ELDLTQTPSSVEVAVGGAVTIKCQASHIITNYLAWYQQRPGQPPKLLIYDASKLASGVPSRFKGSGSGTEFTLTISDLECADAATYYCQNYLYFSSGDWNVFGGGTEVVVK | 2.32

Other lines, results leading:

Row | OD450 [OD450] | Binder
14 | 2.25 | mAb of B cell clone 72 (supernatant) (antibody, V domains shown, rabbit; also called B1-#72-1) VH: QSVKESGGGLVQPEGSLALTCKASGIDLSNYWYMCWVRQAPGKGLEWIGCVATDSSRTHYATWAKGRFTVSKTSSTTVTLQMTSLTAADTATYFCARGSGASTNGVWWVMGDGMDLWGPGTLVTISS VL: ELVMTQTPSSVSAAVGGTVTIKCQASPSISTYLSWYQQKPGQPPKRLINRASTLASGVPPRFKGSGAGTQFTLTISDLECADAATYYCQNNYHSGSSNGGGVAFGGGTEVEIK
15 | 2.14 | mAb of B cell clone 76 (supernatant) (antibody, V domains shown, rabbit; also called B1-#76) VH: EQSVEESGGGLVQPEGSLTLTCTASGFSFSGSCDMSWVRQAPGKGLEWIACIVLSNGNTYYAGWAQGRFTISKISSTTVTLEMTSLTAADTATYFCARERYPGAFSSGLDLWGQGTLVTVSS VL: ELDLTQTPSPVSAAVGGTVTINCQASQIVANGRLAWYQQKPGQPPKLLIYATSTLASGVPSRFKGSGSGTQFTLTINGVQCDDAATYYCQGAYSSGDVRTFGGGTEVVVK
16 | 2.32 | mAb of B cell clone 79 (supernatant) (antibody, V domains shown, rabbit; also called B1-#79) VH: QSLEESGGGLVQPEGSLTLTCTVSGFSFSSSWYMCWVRQAPGKGLEWIACIYTLRSGAAHYANWAKGRFTISKASSTTVTLQMNSLTAADTATYFCARATYAYAGAGDLWGPGTLVTVSS VL: ELVLTQTPSSVSAAVGGTVTINCQASEDIDRYLAWYQQKPGQRPKLLIVDASTLPSGVPSRFKGSGSGTEFTLTISDLECADGATYYCQSYDNSDNNGFGGGTEVVVK
